Assay results reported in paper PMC12548936, “Microfluidic‐Assisted Evolution of a Robust NAD^+‐Dependent Enzyme with Improved Isobutanol Tolerance at Elevated Temperatures” (Chemsuschem, 2025).
Where a chain is given by its changes, count along the chain named. In names and notes the source's numbering stands.

Tests used:
[1] = substrate: NC(=O)c1ccc[n+]([C@@H]2O[C@H](COP(=O)(O)OP(=O)(O)OC[C@H]3O[C@@H](n4cnc5c(N)ncnc54)[C@H](O)[C@@H]3O)[C@@H](O)[C@H]2O)c1; experiment: photometric ALDH activity assay, Michaelis-Menten fit; type: biochemical, Herbaspirillum seropedicae; details: co-substrate 5 mM D-glyceraldehyde, 100 mM HEPES, varied: cofactor
purified protein = substrate: O=C[C@H](O)CO; experiment: purified protein; details: co-substrate 5 mM NAD+, 100 mM HEPES
[2] = wild type, Chis tag, pH 7.5, 30 °C, 30.0 °C
[3] = FIN3, GS-linker Nhis tag, pH 7.5, 50 °C
[4] = FIN3, GS-linker Nhis tag, pH 7.5, 50 °C, 50.0 °C
[5] = FIN4, GS-linker Nhis tag, pH 7.5, 50 °C
[6] = FIN4, GS-linker Nhis tag, pH 7.5, 50 °C, 50.0 °C
[7] = StEP template, GS-linker Nhis tag, pH 7.5, 50 °C
[8] = StEP template, GS-linker Nhis tag, pH 7.5, 50 °C, 50.0 °C
[9] = FIN5, GS-linker Nhis tag, pH 7.5, 50 °C, 50.0 °C

B1: HsALDH (HsALDH_Chis; NAD+-dependent aldehyde dehydrogenase / glyceraldehyde dehydrogenase GADH) (Herbaspirillum seropedicae SmR1) (protein)
chain: MYKDVQLFINGEWTASASGRTIDVINPATEEVIGKIAHADRADLDRALEAASKGFETWRNMSAFERSKIMRRAADLLRERAEEVARLMTMEQGKPLAEAKMETLGAADTIDWFAEEARRTYGRLVPARVPGAYQMVIKEPVGPVAAFTPWNFPLNQVVRKLSAALAAGCSIIVKAPEETPASPAELIRAYADAGVPAGVINLVYGVPAEISEYLIPHPVIKKISFTGSTPVGKQLAALAGQHMKRATMELGGHAPAMVFDDADVDVAAKMLATAKFRNAGQVCVSPTRFLVQKGVFNAFVDKFVTYAEQLKVGNGLEAGITMGPVANKRRIPALEALIDDAVSQGAQLRTGGKRIGNKGYFFQPTVLTNLPLQARAMNEEPFGPLALINSFETLDEVITEANRLPYGLAAYAFAKSAHTKHALAARVESGMLTINHLGLALPELPFGGIKDSGYGSEGGTEAIEAYINTKLVTQLDV
notes: recombinant, E. coli BL21(DE3); wild type with C-terminal His tag (Chis); models show dimerizing chains
Km ([1]; wild type, Chis tag, pH 7.5, 30 °C): 590 µM
Km (purified protein; [2]): 13000 ± 400 µM
kcat (purified protein; [2]): 68.6 ± 0.8 s⁻¹

B2: HsALDH (HsALDH_Chis; NAD+-dependent aldehyde dehydrogenase / glyceraldehyde dehydrogenase GADH) (Herbaspirillum seropedicae SmR1; F147L/I36V/K221R/V158A/V284I) (protein)
chain: B1 chain with I36V, F147L, V158A, K221R, V284I
notes: as for B1
Km [1, 3]: 420 ± 20 µM
kcat [1, 3]: 46.9 ± 1.3 s⁻¹
Km (purified protein; [4]): 3300 ± 400 µM
kcat (purified protein; [4]): 46.9 ± 1.3 s⁻¹

B3: HsALDH (HsALDH_Chis; NAD+-dependent aldehyde dehydrogenase / glyceraldehyde dehydrogenase GADH) (Herbaspirillum seropedicae SmR1; F147L/I36V/K221R/L432M/V284I) (protein)
chain: B1 chain with I36V, F147L, K221R, V284I, L432M
notes: as for B1
Km [1, 5]: 500 ± 60 µM
kcat [1, 5]: 46.6 ± 1.4 s⁻¹
Km (purified protein; [6]): 7200 ± 800 µM
kcat (purified protein; [6]): 46.6 ± 1.4 s⁻¹

B4: HsALDH (HsALDH_Chis; NAD+-dependent aldehyde dehydrogenase / glyceraldehyde dehydrogenase GADH) (Herbaspirillum seropedicae SmR1; F147L/I36V/V284I) (protein)
chain: B1 chain with I36V, F147L, V284I
notes: as for B1
Km [1, 7]: 510 ± 30 µM
kcat [1, 7]: 66.1 ± 2.0 s⁻¹
Km (purified protein; [8]): 12700 ± 1200 µM
kcat (purified protein; [8]): 66.1 ± 2.0 s⁻¹

B5: HsALDH (HsALDH_Chis; NAD+-dependent aldehyde dehydrogenase / glyceraldehyde dehydrogenase GADH) (Herbaspirillum seropedicae SmR1; … (protein)
chain: B1 chain with I36V, F147L, V158A, K221R, V284I, L432M
notes: as for B1
Km ([1]; FIN5, GS-linker Nhis tag, pH 7.5, 50 °C): 340 µM
Km (purified protein; [9]): 3500 ± 500 µM
kcat (purified protein; [9]): 54.8 ± 1.9 s⁻¹
